Kd data for 2 molecules are collected here from paper PMC8247607.

This series has as its target T1, MSL2 CXC domain (CXCvir) (Drosophila virilis, UniProt O76733 514-567).
T1 sequence: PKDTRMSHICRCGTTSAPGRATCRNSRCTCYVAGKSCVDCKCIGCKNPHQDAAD
As to the kind of experiment: NMR 1H-15N HSQC titration.

B1: S12 (dsDNA)
DNA 1: ATGAGCGAGATG
DNA 2: CATCTCGCTCAT
With B1, the Kd (as a rule, the constant that tells how readily two partners part at equilibrium) came out at 2800 nM.

B2: S12 mutant (dsDNA)
DNA 1: ATGAAAAAAATG
DNA 2: CATTTTTTTCAT
Molecule B2 showed a Kd of 2400 nM.
